B1: bone morphogenetic protein 7 (BMP7), human (ligand, UniProt P18075 293-431, looked up)
chain: STGSKQRSQNRSKTPKNQEALRMANVAENSSSDQRQACKKHELYVSFRDLGWQDWIIAPEGYAAYYCEGECAFPLNSYMNATNHAIVQTLVHFINPETVPKPCCAPTQLNAISVLYFDDSSNVILKKYRNMVVRACGCH
modifications: biotin (sulfo-NHS-LC-biotin) where immobilised
notes: human BMP7, CHO-cell derived, bought; dimeric ligand; also called hBMP7; source: bought: R&D Systems (CHO-cell derived)
B2: growth and differentiation factor 5 (GDF5), mature part (ligand)
chain: MKRQGKRPSKNLKARCSRKALHVNFKDMGWDDWIIAPLEYEAFHCEGLCEFPLRSHLEPTNHAVIQTLMNSMDPESTPPTCCVPTRLSPISILFIDSANNVVYKQYEDMVVESCGCR
modifications: biotin (sulfo-NHS-LC-biotin) where immobilised
notes: N-terminal Met-Lys added to the mature part; dimeric ligand; source: E. coli, isolated from inclusion bodies, renatured and purified
B3: BMP receptor II (BMPR-II) ectodomain, human (receptor, UniProt Q13873 32-150, looked up)
chain: RLCAFKDPYQQDLGIGESRISHENGTILCSKGSTCYGLWEKSKGDINLVKQGCWSHIGDPQECHYEECVVTTTPPSIQNGTYRFCCCSTDLCNVNFTENFPPPDTTPLSPPHSFNRDET
modifications: N-biotinylated (sulfo-NHS-LC-biotin) where immobilised
notes: also called hBMPR-II
B4: bone morphogenetic protein 2 (BMP2), mature part, wild type (ligand, human)
chain: MAQAKHKQRKRLKSSCKRHPLYVDFSDVGWNDWIVAPPGYHAFYCHGECPFPLADHLNSTNHAIVQTLVNSVNSKIPKACCVPTELSAISMLYLDENEKVVLKNYQDMVVEGCGCR
modifications: biotin (sulfo-NHS-LC-biotin) where immobilised
notes: N-terminal Met-Ala added to the mature part; dimeric ligand; also called wtBMP2; BMP2wt; source: E. coli, isolated from inclusion bodies, renatured and purified

Assays:
Details in all cases: both partners purified
[1] = target: B3; assay: SPR; Biacore 2000; ligands as analyte over biotinylated receptor ectodomains (about 200 RU) on streptavidin-coated CM5 chips; HBS500 (10 mM HEPES pH 7.4, 500 mM NaCl, 3.4 mM EDTA, 0.005% P20), 25°C, 10 μl/min; apparent affinities, 1:2 interaction with avidity
[2] = target: T1, activin receptor type II (ActR-II) ectodomain, human (human, UniProt P27037 18-135, N-biotinylated (sulfo-NHS-LC-biotin) where immobilised); assay: as above
T1 construct: also called hActR-II

[3] = target: T1, activin receptor type II (ActR-II) …; assay: SPR; Biacore 2000; receptor ectodomains as analyte over biotinylated ligands on streptavidin-coated CM5 chips; HBS500, 25°C, 10 μl/min; apparent affinities, 1:1 interaction
[4] = target: B3; assay: as above
[5] = target: B1; assay: SPR; Biacore 2000; ligands as analyte over biotinylated receptor ectodomains (about 200 RU) on streptavidin-coated CM5 chips; HBS500 (10 mM HEPES pH 7.4, 500 mM NaCl, 3.4 mM EDTA, 0.005% P20), 25°C, 10 μl/min; apparent affinities, 1:2 interaction with avidity
[6] = target: B1; assay: SPR; Biacore 2000; receptor ectodomains as analyte over biotinylated ligands on streptavidin-coated CM5 chips; HBS500, 25°C, 10 μl/min; apparent affinities, 1:1 interaction

Binder: B1
KD (kin) [1]: 25 nM
KD (kin) [2]: 5.1 nM
Kd [2]: 8 nM
koff [2]: 0.0062 s⁻¹
kon [2]: 1.2e+06 M⁻¹ s⁻¹
Kd [3]: 880 nM
koff [3]: > 0.1 s⁻¹

Binder: B2
KD (kin) [1]: 36 nM
Kd [1]: 46 nM
Kd [4]: 60000 nM

Binder: B3
Kd [5]: 40 nM
koff [5]: 0.024 s⁻¹
kon [5]: 960000 M⁻¹ s⁻¹
Kd [6]: 9100 nM
koff [6]: > 0.1 s⁻¹

Binder: B4
KD (kin) [1]: 45 nM
Kd [1]: 59 nM
Kd [4]: 13000 nM

Source: article PMC2749821 (BMC Biology, 2009)
